For one assay, the target named is T1, human CD3 protein (human, UniProt P07766 23-126; P04234 22-105).
T1 construct: ELISA coating protein; also called Human CD3D & CD3E Heterodimer Protein
Description: ELISA, plate-coated CD3.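 Note: binding to plate-immobilized human CD3 protein, bound antibody detected with peroxidase-labelled anti-human IgG and TMB, read as absorbance at 450 nm.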 In general terms: An ELISA detects its analyte on a solid surface through an enzyme-linked reagent.

Assay [1] addresses T2, recombinant CD3D&E protein (human CD3-his tag) (human, UniProt P04234 22-105; P07766 23-126, limits assumed).
T2 construct: Analyte in Biacore; also called CD3D&E-His; CD3d&ε-His
Description: SPR Biacore, Ab captured on Protein A.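 Note: humanized antibodies on a Protein A chip, human CD3-his analyte flowed over in serial dilutions for 3 min, dissociation tracked 120–360 s on a Biacore T200.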

Assay [2] has as its target human CD3 on cells (human PBMC; Jurkat TCR/CD3 NFAT reporter cells) (human, UniProt P07766 23-207; P04234 22-171; P09693 23-182). As to the kind of experiment: cell-based or functional assay.

These results are taken from patent US20240417469A1 (CONCEPT TO MEDICINE BIOTECH, published 2024).

Some results are limits rather than exact numbers.

T2 sequence (P04234 22-105 limits assumed, chain 1 of 2): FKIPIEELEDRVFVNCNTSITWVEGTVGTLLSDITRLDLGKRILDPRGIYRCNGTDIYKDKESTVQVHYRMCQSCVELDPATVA
T2 sequence (P07766 23-126 limits assumed, chain 2 of 2): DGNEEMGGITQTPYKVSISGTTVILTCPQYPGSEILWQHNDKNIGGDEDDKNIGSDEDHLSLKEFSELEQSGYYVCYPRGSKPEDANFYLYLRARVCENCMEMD
Sequence of human CD3 on cells (human PBMC; Jurkat TCR/CD3 NFAT reporter cells) (P07766 23-207, chain 1 of 3): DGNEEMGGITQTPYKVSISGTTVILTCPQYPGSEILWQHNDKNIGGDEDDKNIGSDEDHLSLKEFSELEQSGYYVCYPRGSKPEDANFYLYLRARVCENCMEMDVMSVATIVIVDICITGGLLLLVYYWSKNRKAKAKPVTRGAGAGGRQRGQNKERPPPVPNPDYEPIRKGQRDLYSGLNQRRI
Sequence of human CD3 on cells (human PBMC; Jurkat TCR/CD3 NFAT reporter cells) (P04234 22-171, chain 2 of 3): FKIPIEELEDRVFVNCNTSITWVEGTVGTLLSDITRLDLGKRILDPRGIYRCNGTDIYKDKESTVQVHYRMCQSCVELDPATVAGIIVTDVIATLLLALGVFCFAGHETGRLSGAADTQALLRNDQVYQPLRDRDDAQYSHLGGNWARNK
Sequence of human CD3 on cells (human PBMC; Jurkat TCR/CD3 NFAT reporter cells) (P09693 23-182, chain 3 of 3): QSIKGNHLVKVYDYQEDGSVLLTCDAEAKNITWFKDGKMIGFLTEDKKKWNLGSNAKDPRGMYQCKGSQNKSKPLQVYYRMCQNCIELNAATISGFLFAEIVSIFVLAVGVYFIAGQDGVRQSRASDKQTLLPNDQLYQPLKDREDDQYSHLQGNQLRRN
T1 sequence (P07766 23-126 limits assumed, chain 1 of 2): as the sequence (P07766 23-126 limits assumed, chain 2 of 2) above
T1 sequence (P04234 22-105 limits assumed, chain 2 of 2): as the sequence (P04234 22-105 limits assumed, chain 1 of 2) above

B1: Hu192A7B9-16 (antibody, V domains shown)
VH: EVQLQESGPGLVKPSETLSLTCTVSGGSISSYNVHWVRQPPGKGLEWMGRMRYNGDTSYNSALKSRLTISRDTSKNQFSLKLSSVTAADTAVYYCTRGPRGGYYSALFDYWGQGTMVTVSS
VL: DIQMTQSPSSLSASVGDRVTITCKASQNINRYLNWYQQKPGKAPKLLISIANSLQTGIPSRFSGSGSGTDFTLTISSLQPEDFATYYCLQHNSWYTFGQGTKLEIK
notes: humanized mAb
For orientation: EC50 means the concentration at which the effect is half-maximal. A higher EC50 goes with a less potent agent. Usually Kd stands for the concentration at which binding is half-saturated. As a reminder, the koff is the first-order rate constant of dissociation. Broadly, the kon is the rate constant with which the complex forms. In the assay with human CD3 protein, B1 showed an EC50 of 7.46 ng/mL. Moreover, in assay [1], the dissociation constant (Kd) came to 146 nM, the koff stood at 0.0143 s⁻¹ and the kon came out at 97600 M⁻¹ s⁻¹. Also, in assay [2], the “CD3-NFAT Activity by CD3 mAb” value was more than 50 % SP34.

B2: Hu192A7B9-2 (antibody, V domains shown)
VH: EVQLQESGPGLVKPSETLSLTCTVSGGSISSYNVHWVRQPPGKGLEWIGRMRYNGDTSYNSALKSRVTISRDTSKNQFSLKLSSVTAADTAVYYCARGPRGGYYSALFDYWGQGTMVTVSS
VL: DIQMTQSPSSLSASVGDRVTITCKASQNINRYLNWYQQKPGKAPKLLIYIANSLQTGVPSRFSGSGSGTDFTLTISSLQPEDFATYYCLQHNSWYTFGQGTKLEIK
notes: humanized mAb
In the assay with human CD3 protein, B2 registered an EC50 of 194 ng/mL. Further, in assay [2], the “CD3-NFAT Activity by CD3 mAb” value was not above 50 % SP34.

B3: Hu192A7B9-4 (antibody, V domains shown)
VH: EVQLQESGPGLVKPSETLSLTCTVSGGSISSYNVHWVRQPPGKGLEWMGRMRYNGDTSYNSALKSRLTISRDTSKNQFSLKLSSVTAADTAVYYCTRGPRGGYYSALFDYWGQGTMVTVSS
VL: DIQMTQSPSSLSASVGDRVTITCKASQNINRYLNWYQQKPGKAPKLLIYIANSLQTGVPSRFSGSGSGTDFTLTISSLQPEDFATYYCLQHNSWYTFGQGTKLEIK
notes: humanized mAb
For the molecule B3, the EC50 with human CD3 protein worked out at 22.8 ng/mL. Also, in assay [2], the “CD3-NFAT Activity by CD3 mAb” value is not above 50 % SP34.

B4: Hu192A7B9-1 (antibody, V domains shown)
VH: EVQLQESGPGLVKPSETLSLTCTVSGGSISSYNVHWIRQPPGKGLEWIGRMRYNGDTSYNSALKSRVTISVDTSKNQFSLKLSSVTAADTAVYYCARGPRGGYYSALFDYWGQGTMVTVSS
VL: DIQMTQSPSSLSASVGDRVTITCKASQNINRYLNWYQQKPGKAPKLLIYIANSLQTGVPSRFSGSGSGTDFTLTISSLQPEDFATYYCLQHNSWYTFGQGTKLEIK
notes: humanized mAb
Regarding B4, the EC50 in the assay with human CD3 protein was determined as 148 ng/mL. The “CD3-NFAT Activity by CD3 mAb” value in assay [2] was not above 50 % SP34.

B5: Hu192A7B9-3 (antibody, V domains shown)
VH: EVQLQESGPGLVKPSETLSLTCTVSGGSISSYNVHWVRQPPGKGLEWMGRMRYNGDTSYNSALKSRLTISRDTSKNQFSLKLSSVTAADTAVYYCARGPRGGYYSALFDYWGQGTMVTVSS
VL: DIQMTQSPSSLSASVGDRVTITCKASQNINRYLNWYQQKPGKAPKLLIYIANSLQTGVPSRFSGSGSGTDFTLTISSLQPEDFATYYCLQHNSWYTFGQGTKLEIK
notes: humanized mAb
Turning to B5, the EC50 with human CD3 protein turned out to be 86.2 ng/mL. Moreover, the “CD3-NFAT Activity by CD3 mAb” value in assay [2] was not above 50 % SP34.

B6: Hu192A7B9-9 (antibody, V domains shown)
VH: EVQLQESGPGLVKPSETLSLTCTVSGGSISSYNVHWVRQPPGKGLEWMGRMRYNGDTSYNSALKSRLTISRDTSKNQFSLKLSSVTAADTAVYYCARGPRGGYYSALFDYWGQGTMVTVSS
VL: DIQMTQSPSSLSASVGDRVTITCKASQNINRYLNWYQQKPGKAPKLLISIANSLQTGVPSRFSGSGSGTDFTLTISSLQPEDFATYYCLQHNSWYTFGQGTKLEIK
notes: humanized mAb
In turn, B6 displayed an EC50 with human CD3 protein of 5.58 ng/mL. In assay [1], the Kd was determined as 92.7 nM, the koff came to 0.0204 s⁻¹ and the kon turned out to be 220000 M⁻¹ s⁻¹. In addition, the “CD3-NFAT Activity by CD3 mAb” value in assay [2] is more than 50 % SP34.

B7: Hu192A7B9-10 (antibody, V domains shown)
VH: EVQLQESGPGLVKPSETLSLTCTVSGGSISSYNVHWVRQPPGKGLEWMGRMRYNGDTSYNSALKSRLTISRDTSKNQFSLKLSSVTAADTAVYYCTRGPRGGYYSALFDYWGQGTMVTVSS
VL: DIQMTQSPSSLSASVGDRVTITCKASQNINRYLNWYQQKPGKAPKLLISIANSLQTGVPSRFSGSGSGTDFTLTISSLQPEDFATYYCLQHNSWYTFGQGTKLEIK
notes: humanized mAb
Regarding B7, the response with human CD3 protein was half-maximal at 5.08 ng/mL (EC50). For the same molecule, in assay [1], the Kd stood at 122 nM, the koff was found to be 0.0144 s⁻¹ and the kon is 118000 M⁻¹ s⁻¹. In addition, the “CD3-NFAT Activity by CD3 mAb” value in assay [2] is more than 50 % SP34.

B8: Hu192A7B9-6 (antibody, V domains shown)
VH: EVQLQESGPGLVKPSETLSLTCTVSGFSLTSYNVHWVRQPPGKGLEWMGRMRYNGDTSYNSALKSRLTISRDTSKNQVSLKLSSVTAADTAVYYCTRGPRGGYYSALFDYWGQGTMVTVSS
VL: DIQMTQSPSSLSASVGDRVTITCKASQNINRYLNWYQQKPGKAPKLLIYIANSLQTGVPSRFSGSGSGTDFTLTISSLQPEDFATYYCLQHNSWYTFGQGTKLEIK
notes: humanized mAb
In turn, B8 showed an EC50 with human CD3 protein of 8.59 ng/mL. For the same molecule, in assay [1], the Kd was found to be 283 nM, the koff stood at 0.024 s⁻¹ and the association rate constant (kon) amounted to 84900 M⁻¹ s⁻¹. The “CD3-NFAT Activity by CD3 mAb” value in assay [2] is more than 50 % SP34.

B9: Hu192A7B9-5 (antibody, V domains shown)
VH: EVQLQESGPGLVKPSETLSLTCTVSGFSISSYNVHWVRQPPGKGLEWMGRMRYNGDTSYNSALKSRLTISRDTSKNQVSLKLSSVTAADTAVYYCTRGPRGGYYSALFDYWGQGTMVTVSS
VL: DIQMTQSPSSLSASVGDRVTITCKASQNINRYLNWYQQKPGKAPKLLIYIANSLQTGVPSRFSGSGSGTDFTLTISSLQPEDFATYYCLQHNSWYTFGQGTKLEIK
notes: humanized mAb
With B9, the EC50 with human CD3 protein is 5.52 ng/mL. In assay [1], the Kd was 103 nM, the koff stood at 0.0119 s⁻¹ and the kon worked out at 116000 M⁻¹ s⁻¹. Moreover, the “CD3-NFAT Activity by CD3 mAb” value in assay [2] is more than 50 % SP34.

B10: Hu192A7B9-8 (antibody, V domains shown)
VH: EVQLQESGPGLVKPSETLSLTCTVSGGSISSYNVHWVRQPPGKGLEWIGRMRYNGDTSYNSALKSRVTISRDTSKNQFSLKLSSVTAADTAVYYCARGPRGGYYSALFDYWGQGTMVTVSS
VL: DIQMTQSPSSLSASVGDRVTITCKASQNINRYLNWYQQKPGKAPKLLISIANSLQTGVPSRFSGSGSGTDFTLTISSLQPEDFATYYCLQHNSWYTFGQGTKLEIK
notes: humanized mAb
In the assay with human CD3 protein, B10 returned an EC50 of 6.42 ng/mL. Also, in assay [1], the Kd is 58.9 nM, the koff was found to be 0.0475 s⁻¹ and the kon stood at 805000 M⁻¹ s⁻¹. In addition, the “CD3-NFAT Activity by CD3 mAb” value in assay [2] is more than 50 % SP34.

B11: Hu192A7B9-11 (antibody, V domains shown)
VH: EVQLQESGPGLVKPSETLSLTCTVSGFSISSYNVHWVRQPPGKGLEWMGRMRYNGDTSYNSALKSRLTISRDTSKNQVSLKLSSVTAADTAVYYCTRGPRGGYYSALFDYWGQGTMVTVSS
VL: DIQMTQSPSSLSASVGDRVTITCKASQNINRYLNWYQQKPGKAPKLLISIANSLQTGVPSRFSGSGSGTDFTLTISSLQPEDFATYYCLQHNSWYTFGQGTKLEIK
notes: humanized mAb
B11: in the assay with human CD3 protein, a half-maximal response (EC50) required 7.95 ng/mL. Also, in assay [1], the Kd was found to be 77.7 nM, the koff was determined as 0.00449 s⁻¹ and the kon came out at 57800 M⁻¹ s⁻¹. The “CD3-NFAT Activity by CD3 mAb” value in assay [2] is more than 50 % SP34.

B12: Hu192A7B9-7 (antibody, V domains shown)
VH: EVQLQESGPGLVKPSETLSLTCTVSGGSISSYNVHWIRQPPGKGLEWIGRMRYNGDTSYNSALKSRVTISVDTSKNQFSLKLSSVTAADTAVYYCARGPRGGYYSALFDYWGQGTMVTVSS
VL: DIQMTQSPSSLSASVGDRVTITCKASQNINRYLNWYQQKPGKAPKLLISIANSLQTGVPSRFSGSGSGTDFTLTISSLQPEDFATYYCLQHNSWYTFGQGTKLEIK
notes: humanized mAb
Consider B12, for which the EC50 with human CD3 protein was determined as 22.6 ng/mL. In addition, in assay [1], the Kd turned out to be 79.6 nM, the koff was found to be 0.0151 s⁻¹ and the kon came to 190000 M⁻¹ s⁻¹. Besides, the “CD3-NFAT Activity by CD3 mAb” value in assay [2] is not above 50 % SP34.
